In article PMC7158967, “Comparative evaluation of ^68Ga-labelled TATEs: the impact of chelators on imaging” (EJNMMI Research, 2020):
Like-named read-outs stand apart in the source and are kept apart here.

Tests used:
[1] = cited from earlier work
[2] = Micro-PET/CT imaging of AR42J tumour-bearing nude mice; conditions: both sexes, nude, mouse, in vivo, iv, 2.96 MBq, total radioactivity
Method: (§1) Tumour cells were subcutaneously injected into the left forelimb of each nude mouse. Biodistribution and imaging studies were conducted when the tumour volume reached at least 1.0 × 1.0 × 1.0 cm^3.
(§2) Six (3 female and 3 male) mice with AR42J tumour xenografts (15–20 g) were used in the imaging study. All tumour-bearing mice were anaesthetized by intranasal inhalation of isoflurane. […] Images were acquired and reconstructed using micro-PET/CT at 30 min and 2 h after intravenous injection.

[3] = test system: AR42J tumour-bearing mice; experiment: as above; conditions: mouse, in vivo
Method: as §1, §2

[4] = Lipid-water partition (log Po/w), octanol water system; format: physicochemical
Method: The lipid-water partition (logP) of ^68Ga-labelled complexes was determined in the octanol water system by following the procedure mentioned below. In brief, 490 μL of ultrapure water was added to each of three centrifuge tubes containing 0.5 mL of saturated n-octanol and then combined with 10 μL (1.85 MBq/0.05 mCi) of freshly prepared radiolabelled complexes by ultrasonication (3 min). The centrifuge tube was allowed to stand for approximately 1 min for the liquid to become stratified. The upper and lower liquids were defined as groups A (A1, A2, A3) and B (B1, B2, B3), accounting for the organic and aqueous phases, respectively. Then, 0.1 mL was retrieved from each of the 6 sections. The radioactivity (CPM) of both phases was determined using a gamma counter, and the lipid-water partition coefficient was calculated as follows: logP = log (A-background)/(B-background). The average of three tubes was recorded as the logP.

[5] = test system: healthy volunteers; experiment: clinical; conditions: human, in vivo
Method: (§3) Twenty-two healthy volunteers gave informed consent and agreed to participate in the study. […] Each patient was injected with an average activity of 1.9 MBq/kg. The timing of image acquisition ranged from 30 to 45 min after injection (3 min/bed position). The PET image was attenuated and then reconstructed using the iterative reconstruction algorithm implemented.

[6] = clinical; conditions: human, in vivo, total radioactivity
Method: as §3

[7] = test system: SSTR2; set-up: method as in PMID 28864614; conditions: read-out: half inhibitory concentration (IC50) on SSTR2; cited from earlier work
[8] = Biodistribution in AR42J tumour-bearing nude mice; conditions: mouse, in vivo
Method: as §1

[9] = format: in vitro ADME; conditions: human
Method: In vitro serum binding studies for both ^68Ga-labelled NOTA-TATE and DOTA-TATE were carried out by following a generalized procedure summarized below. One millilitre of fresh anticoagulated (heparinized) human plasma was prepared. Freshly labelled compound (3.7 MBq, 0.1 mCi) was added to three centrifuge tubes, each containing 0.1 mL of human plasma. After incubation at 37 °C for 2 h, 1 mL of ice-cold methanol was added to each tube. The mixtures were separated by centrifugation (5 min, 3000 rpm) to collect the supernatant, which was repeated three times. A gamma counter was then used to measure the radioactivity of the supernatant (A) and the precipitate (B) in counts per minute (CPM); the plasma-protein binding rate was calculated as PPB = B/(A + B)100%, and the average of three tubes was recorded.

O=C(O)CN1CCN(CC(=O)O)CCN(CC(=O)O)CCN(CC(=O)O)CC1 [DOTA, 1,4,7,10-tetraazacyclododecane-1,4,7,10-tetraacetic acid]
log stability constant of the ^68Ga complex ([1]; DOTA ^68Ga complex, pseudo-octahedral geometry): 21.33

C[C@@H](O)[C@H](NC(=O)[C@@H]1CSSC[C@H](NC(=O)[C@@H](Cc2ccccc2)NC(=O)CN2CCN(CC(=O)O)CCN(CC(=O)O)CCN(CC(=O)O)CC2)C(=O)N[C@@H](Cc2ccc(O)cc2)C(=O)N[C@H](Cc2c[nH]c3ccccc23)C(=O)N[C@@H](CCCCN)C(=O)N[C@@H]([C@@H](C)O)C(=O)N1)C(=O)O [^68Ga-DOTA-TATE, metal not drawn]
SUV at 0.5 h [2]: 2.87 SUV | SUV at 2 h [2]: 1.83 SUV | gallbladder radioactivity on micro-PET/CT [3]: minimal gallbladder activity | log Po/w (partition coefficient) [4]: − 2.72 ± 0.16 | SUVmax Blood pool, range [5]: 0.6~1.4 | SUVmax Bone marrow, range [5]: 0.5~1.3 | SUVmax Kidneys, range [5]: 11.2~17.8 | SUVmax Large bowel, range [5]: 1.6~3.7 | SUVmax Lungs, range [5]: 0.5~1.3 | SUVmax Palatine tonsil, range [5]: 1.2~4.1 | SUVmax Parotid gland, range [5]: 1.9~5.4 | SUVmax Pituitary gland, range [5]: 2.4~7.9 | SUVmax Small bowel, range [5]: 2.2~4.9 | SUVmax Spleen, range [5]: 20.1~33.5 | SUVmax Stomach, range [5]: 3.1~8.3 | SUVmax Submandibular, range [5]: 1.7~5.7 | SUVmax Thymus, range [5]: 0.7~1.5 | SUVmax kidneys, single value [5]: 17.8 | SUVmax lung tissue, single value [5]: 1.3 | SUVmax pituitary gland, single value [5]: 7.9 | SUVmax spleen, single value [5]: 33.5 | SUVmax stomach wall, single value [5]: 8.3 | radioactivity in the gallbladder [5]: No radioactivity was seen | uptake in the brain [5]: not taken up in the brain | SUV ([6]; both sexes, 1.9 MBq/kg, SUVmax Adrenals, average): 15.2 SUV | SUV ([6]; both sexes, 1.9 MBq/kg, SUVmax Blood pool, average): 0.9 SUV | SUV ([6]; both sexes, 1.9 MBq/kg, SUVmax Bone marrow, average): 0.8 SUV | SUV ([6]; both sexes, 1.9 MBq/kg, SUVmax Kidneys, average): 14.5 SUV | SUV ([6]; both sexes, 1.9 MBq/kg, SUVmax Large bowel, average): 2.2 SUV | SUV ([6]; both sexes, 1.9 MBq/kg, SUVmax Liver, average): 10.1 SUV | SUV ([6]; both sexes, 1.9 MBq/kg, SUVmax Lungs, average): 0.8 SUV | SUV ([6]; both sexes, 1.9 MBq/kg, SUVmax Lymph nodes, average): 1.1 SUV | SUV ([6]; both sexes, 1.9 MBq/kg, SUVmax Palatine tonsil, average): 2.6 SUV | SUV ([6]; both sexes, 1.9 MBq/kg, SUVmax Pancreas, average): 6.2 SUV | SUV ([6]; both sexes, 1.9 MBq/kg, SUVmax Small bowel, average): 3.4 SUV | SUV ([6]; both sexes, 1.9 MBq/kg, SUVmax Spleen, average): 26.9 SUV | SUV ([6]; both sexes, 1.9 MBq/kg, SUVmax Stomach, average): 6.1 SUV | SUV ([6]; both sexes, 1.9 MBq/kg, SUVmax Submandibular, average): 3.4 SUV | SUV ([6]; both sexes, 1.9 MBq/kg, SUVmax Thymus, average): 1.2 SUV | SUV ([6]; both sexes, iv, 1.9 MBq/kg, SUVmax Breast, average): 0.6 SUV | SUV ([6]; iv, 2.52 mCi, SUVmax kidney, single volunteer): 13.9 SUV | SUV ([6]; iv, 2.52 mCi, SUVmax liver, single volunteer): 9.4 SUV | SUV ([6]; iv, 2.52 mCi, SUVmax pituitary, single volunteer): 7.74 SUV | SUV ([6]; iv, 2.52 mCi, SUVmax spleen, single volunteer): 25.5 SUV | SUV ([6]; iv, 2.8 mCi, SUVmax liver, single volunteer): 7.8 SUV | SUV ([6]; iv, 2.8 mCi, SUVmax spleen, single volunteer): 16.3 SUV | IC50 [7]: […] | tissue uptake at 0.25 h ([8]; %ID/g Blood): 3.03 ± 1.96 %ID/g | tissue uptake at 1 h ([8]; %ID/g Blood): 0.35 ± 0.2 %ID/g | tissue uptake at 2 h ([8]; %ID/g Blood): 0.05 ± 0.02 %ID/g | tissue uptake at 0.25 h ([8]; %ID/g Gallbladder): 1.47 ± 0.62 %ID/g | tissue uptake at 0.25 h ([8]; %ID/g Intestines): 1.56 ± 1.47 %ID/g | tissue uptake at 0.5 h ([8]; %ID/g Intestines): 1.58 ± 1.77 %ID/g | tissue uptake at 2 h ([8]; %ID/g Intestines): 0.23 ± 0.15 %ID/g | tissue uptake at 0.25 h ([8]; %ID/g Kidney): 10.3 ± 8.89 %ID/g | tissue uptake at 0.5 h ([8]; %ID/g Kidney): 8.12 ± 2.71 %ID/g | tissue uptake at 1 h ([8]; %ID/g Kidney): 2.82 ± 2.54 %ID/g | tissue uptake at 2 h ([8]; %ID/g Kidney): 1.49 ± 0.57 %ID/g | tissue uptake at 0.25 h ([8]; %ID/g Liver): 1.27 ± 0.77 %ID/g | tissue uptake at 0.5 h ([8]; %ID/g Liver): 0.61 ± 0.35 %ID/g | tissue uptake at 1 h ([8]; %ID/g Liver): 0.34 ± 0.25 %ID/g | tissue uptake at 2 h ([8]; %ID/g Liver): 0.08 ± 0.07 %ID/g | tissue uptake at 0.5 h ([8]; %ID/g Lungs): 2.86 ± 1.47 %ID/g | tissue uptake at 1 h ([8]; %ID/g Lungs): 4.62 ± 3.42 %ID/g | tissue uptake at 2 h ([8]; %ID/g Lungs): 0.98 ± 0.22 %ID/g | tissue uptake at 0.25 h ([8]; %ID/g Muscle): 1.18 ± 1.26 %ID/g | tissue uptake at 2 h ([8]; %ID/g Muscle): 0.04 ± 0.01 %ID/g | tissue uptake at 0.25 h ([8]; %ID/g Skeleton): 1.94 ± 0.81 %ID/g | tissue uptake at 0.5 h ([8]; %ID/g Skeleton): 1.1 ± 0.63 %ID/g | tissue uptake at 1 h ([8]; %ID/g Skeleton): 0.8 ± 0.73 %ID/g | tissue uptake at 2 h ([8]; %ID/g Skeleton): 0.17 ± 0.06 %ID/g | tissue uptake at 0.25 h ([8]; %ID/g Spleen): 3.84 ± 4.03 %ID/g | tissue uptake at 0.5 h ([8]; %ID/g Spleen): 1.48 ± 0.84 %ID/g | tissue uptake at 1 h ([8]; %ID/g Spleen): 1.92 ± 1.75 %ID/g | tissue uptake at 2 h ([8]; %ID/g Spleen): 0.21 ± 0.19 %ID/g | tissue uptake at 0.25 h ([8]; %ID/g Stomach): 4.24 ± 2.66 %ID/g | tissue uptake at 0.5 h ([8]; %ID/g Stomach): 0.98 ± 0.49 %ID/g | tissue uptake at 1 h ([8]; %ID/g Stomach): 4.26 ± 2.58 %ID/g | tissue uptake at 0.5 h ([8]; %ID/g Tumour): 3.62 ± 1.94 %ID/g | tissue uptake at 1 h ([8]; %ID/g Tumour): 3.14 ± 2.07 %ID/g | tissue uptake at 2 h ([8]; %ID/g Tumour): 2.3 ± 1.34 %ID/g | fraction unbound [9]: 0.694

O=C(O)CN1CCN(CC(=O)O)CCN(CC(=O)O)CC1 [NOTA, 1,4,7-triazacyclononane-1,4,7-triacetic acid]
log stability constant of the ^68Ga complex ([1]; NOTA ^68Ga complex, octahedral): 30.98
